The supplement of paper PMC9170038

Tested on: MS2 coat protein
Experiment: apparent KD of MS2 coat protein; designed switch direction (-1 OFF switch, 1 ON switch): -1; higher = weaker reporter binding
In short: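 Designed RNA switches with common flanks were transcribed on Illumina chips by stalled E. coli RNA polymerase and titrated with SNAP-549-labelled MS2 coat protein, from 0.7 or 1.5 nM doubling to 3 µM, in Tris-HCl pH 7.5 buffer with KCl, MgCl2, BSA, DTT, tRNA and Tween-20. Steps lasted 0.8–1.5 h (lowest) to 10–20 min (highest). Titrations ran without input, with 200 uM small-molecule ligand, or with an oligonucleotide input. Normalised cluster fluorescence was curve-fitted, and apparent KD is the per-design median over clusters.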

[1] = Eterna round: R95, input ligand: FMN 200 uM
[2] = Eterna round: R95, input ligand: microRNA oligo, concentration not stated
[3] = Eterna round: R95, input ligand: none
[4] = input ligand: microRNA oligo, concentration not stated

Sequence	apparent KD of MS2 coat protein (input ligand: FMN 200 uM) [nM]	apparent KD of MS2 coat protein (input ligand: none) [nM]	apparent KD of MS2 coat protein [1] [nM]	apparent KD of MS2 coat protein [2] [nM]	apparent KD of MS2 coat protein [3] [nM]	apparent KD of MS2 coat protein [4] [nM]
CGAGCUCAUGUGAGGAUAUACCUAUGGAUACAUAGGUAGAAGGCACAUGAGGAUCACCCAUGUCCUAGAGCUCG [jl-bmx4-4.58] (Eterna round: R97, puzzle: Brourd's mod of Exclusion 4)	821	138				
GGAAGUAGAAACCGAUCCUACAUGAGGAUCACCCAUGUAGCAAGACGUGCACGCGAAGCUCGUCAGACUACCAGAAC [salish99_TOv1_r3_012] (puzzle: Sensor v3, turn-off variant 1)			204	383	521	
AAUGAUGAUGUGAGGAUAUACAUAGUUAGAAAGUAGUAGAAGGCACAUGAGGAUCACCCAUGUAGAUGUAAGGU [JR_BME4_Sub001] (puzzle: Brourd's mod of Exclusion 4)			52.5	26.3	24.6	
GUGAAGAAGUUAGUGGCCUACAUGAGGAUCACCCAUGUGAGGGAAAUGUCGAGGCGGAGGUUGUGUGCUCGUCUGUA [JR_SV3TOV1_Sub041] (puzzle: Sensor v3, turn-off variant 1)			25.7	27.6	26.4	
GCGGUACAUGAGGAUCACCCAUGUCAGGAUAUCCGCUGUAACUUAAUAAAUAAGCGGUGGAGAAGGGACUUCGC [-18.24, -17.54 kcal, 30% A] (Eterna round: R97, puzzle: Exclusion 1)	34.2	27.6				
GAAGAGUGAGGAUAUACAUGAGGAUCACCCAUGUUAACCUUCUACAGCAUGGACUCGAGUAGAAGGCGCCAAGA [Eternabot (Original) Solution 21] (Eterna round: R97, puzzle: Exclusion 3)	20.3	25.8				
UACAUGUGAGGAUAUGUACGAAGCCCGGCUGGGCCUCGCAGGCAGAAGGCACAUGAGGAUCACCCAUGUGACCG [Enanvezave] (Eterna round: R96, puzzle: Exclusion 4)	82.6	17.3				13.1
UUUUUGUGAGGAUAUCAGUAGUAAAUAAAUAAAAUUACUACUGAGAAGGCACAUGAGGAUCACCCAUGUUCCUU [salish99_ex3_r3_090] (puzzle: Exclusion 4)				14		
AUCAGCUCGUCAGGAUAUACAUGAGGAUCACCCAUGUGAUCAAUAGCAGCUUCGGCUGCAUUAAUGUAGAAGGGACGAGCUGAU [ENG2/5-B3] (Eterna round: R96, puzzle: Exclusion NG 2)	175	407				75
GUCAGCUCGUCAGGAUAUACAUGAGGAUCACCCAUGUGAUCAAUAGCAGCUUCGGCUGCAUACAUGUAGAAGGGACGAGCUGAU [ENG2/6-B2] (Eterna round: R96, puzzle: Exclusion NG 2)	195	160				15.3
GUAAACGCAGAGGAUAUUUCAGAUCCUAGCUGCAAAGAAGGCUGCACAUGAGGAUCACCCAUGUGGUCCUGAAG [Mat - Exclusion 6 - Eli Mod - D2] (Eterna round: R97, puzzle: Exclusion 6)	191	68.2				
ACAUGAGGAUCACCCAUGUCCGGCUGGUCUGUUUCGGCUGUCGAGGAUAUAGUUCGGUGUUCGCGCUAGAAGGCGGGAGCUGGC [Aenatbe mod 59] (Eterna round: R96, puzzle: Exclusion NG 3)	111	82.4				56.5
UAAAGUCAAGGAUAUGGAAGUCCAAACAUGAGGAUCACCCAUGUAAACACAUUGGGAAGCCCAGAAGGUGGCCGUA [Eternabot (L2) Solution 31] (Eterna round: R97, puzzle: Exclusion 5)	76.4	204				
GUGGCACAUGAGGAUCACCCAUGUCAGGAUAUCGCGUGGUUUUUUUCGGCCGCGCGCGCGAGAAGGGACGUCUU (puzzle: Exclusion 1)				27.2		
GCCGAAAAAGUGAGGAUAUACCUAUGGAAACAUAGGUAGAAGGCACAUGAGGAUCACCCAUGUAUCCUAACGGC [Mat - Exclusion 4 - Eli Mod - D28] (Eterna round: R97, puzzle: Brourd's mod of Exclusion 4)	268	28.5				
UGUAUACAUGAGGAUCACCCAUGUAAGGAUAUGCUUUAUUAUUAUUAUUAUUAUUGUUGCAGAAGGUACAUUAU [LRO-Excl01-07] (Eterna round: R97, puzzle: Exclusion 1)	26.4	25.6				
GGUGCACAUGAGGAUCACCCAUGUCAGGAUAUGUUACCACGUUACGAUCGAGUGACGAGCAGAAGGGACUGCAU [Eternabot (L2) Solution 68] (Eterna round: R97, puzzle: Exclusion 1)	39.4	29.6				

Sequence	apparent KD of MS2 coat protein (input ligand: FMN 200 uM) [nM]	apparent KD of MS2 coat protein (input ligand: none) [nM]	apparent KD of MS2 coat protein [1] [nM]	apparent KD of MS2 coat protein [2] [nM]	apparent KD of MS2 coat protein [3] [nM]	apparent KD of MS2 coat protein [4] [nM]
AAAGGCUAAGGAUAUGCACACAUAAACAUGAGGAUCACCCAUGUGUUCCCAGCAACCAUAGCAGAAGGUAGCGAAA [Rarebeve] (puzzle: Exclusion 5)			76.5	70.1	68.7	
GUUAAUUGUCACAUGGGUGACAUGAGGAUCACCCAUGUCACAAGCUUUUUGUUCGUCUUAUAAUUAACCCAUGUGAC [Stov1/12-B2] (Eterna round: R97, puzzle: Sensor, turn-off variant 1)	16	14.4				
UUUUAACAUGAGGAUCACCCAUGUGAGGAUAUCGAAAUUUAUAUUAAUAUUUUUAAAUCGAGAAGGCACAUUUU [JMF 68] (puzzle: Exclusion 1)				98.9		
AUUGUUUAUGUAGGAUAUGCCUGGCGUGCCUUUGCAGAAGGACAUGAGGAUCACCCAUGUAUUGCGGUCUGCGUUCAGAUCGCA [salish99_ExNG1_r4_032] (Eterna round: R96, puzzle: Exclusion NG 1)						25
UAGUGUUACACAGGAUAUCGCCUCUUAUUACAUGAGGAUCACCCAUGUUUAGUUAGUUACAUGUACGAGAAGGGUGUUGUAGUU [JR_ExcNG2_Sub039] (Eterna round: R96, puzzle: Exclusion NG 2)	787	1010				681
ACGGGUAAGUAAGGAUAUCCAACAGGCUGAUUUCAGUCUGAACAUGAGGAUCACCCAUGUGGGUGGGAGAAGGUACUCUCCCGC [Atbienarza] (Eterna round: R96, puzzle: Exclusion NG 2)	107	114				86.3
AAGUACUACAAGCUUCGGGACAUGAGGAUCACCCAUGUUCGUCUUAUUGAUCUAGGUACGCUGACGUACCUAGAUCU [Mat - Sensor v3 - turn-off var 1 - JL Mod - D11] (puzzle: Sensor v3, turn-off variant 1)			14.1	39.2	14.2	
AGACUGCUGCGAGGAUAUACAUGAGGAUCACCCAUGUUUUCCUGUGAGGCAUAGCCUCACAGGAUGUAGAAGGCGCAGUAGUCA [Mat - Exclusion NG 2 - Mod of JL - D30] (Eterna round: R96, puzzle: Exclusion NG 2)	13.8	11.9				11.2
GGUGGACAUGAGGAUCACCCAUGUGAGGAUAUCGGCCGGUUCGUGGUGGCUGGCUUCUCGAGAAGGCGCAUAGU [Exclusion 1 V74] (puzzle: Exclusion 1)				46.4		
UUCUUCUCUGUUAGGAUAUUCUCCGCAGAUGCCUGGAAGAAGGGACAUGAGGAUCACCCAUGUAGUGUAAGCUA [Eternabot (L2) Solution 58] (Eterna round: R97, puzzle: Brourd's mod of Exclusion 4)	40.6	62.8				
UCAAGACAUGAGGAUCACCCAUGUCAGGAUAUCUAGGUUCGCUAUUUCAUUGUUAACGAGAGAAGGGACAUGAU [EX1 C.13] (Eterna round: R97, puzzle: Exclusion 1)	22.9	18				
GAGUAGGGAGGAUAUACGUGCUCAAUCCCGCGAAGCGGGAAACAUGAGGAUCACCCAUGUAGAAGGCCCAUAAA [Inceveus] (puzzle: Exclusion 2)			88.4	171	185	
CACCGGUGAGACAACAUGAGGAUCACCCAUGUGAACAGCUCACAGGAUAUCCAGGCACGAAAGAAGGAGAAGGGUGGCUGACUC [Veuson] (Eterna round: R96, puzzle: Exclusion NG 3)	17.2	17.4				13.6
AGCAUGCAGCAGGAUAUCGAUCCGCAGUAUGAUCGAGAAGGGCUGACAUGAGGAUCACCCAUGUGCGUCCUAGG [jl-ex6-4.42 ViennaUCT mod] (Eterna round: R97, puzzle: Exclusion 6)	295	66.3				
GGACAGCGAGGAUAUACGUGUACGUUAUCCUCUAUGGGUCAACAUGAGGAUCACCCAUGUAGAAGGCGCAUAAU [Mabima] (puzzle: Exclusion 2)				18.7		
ACAUUGGUAGUGAGGAUAUCGGUGAGAUAGAAUGACGAGAAGGCACAUGAGGAUCACCCAUGUAAGAUUGGGCA [JR_BMEx4_Sub042] (Eterna round: R97, puzzle: Brourd's mod of Exclusion 4)	286	251				
UCUGGUCGAGGAUAUACGUGAGGUGCUUCGGCACCAGGUCUACAUGAGGAUCACCCAUGUAGAAGGCGACCAGA [EX2 #61] (Eterna round: R97, puzzle: Exclusion 2)	62.1	16.7				
